From US20200182882A1 come the findings set out here.

Test [1] concerns the target T1, CD20 on a CD20 expressing target cell line (Wil2-S) (UniProt P11836).
T1 sequence (looked up): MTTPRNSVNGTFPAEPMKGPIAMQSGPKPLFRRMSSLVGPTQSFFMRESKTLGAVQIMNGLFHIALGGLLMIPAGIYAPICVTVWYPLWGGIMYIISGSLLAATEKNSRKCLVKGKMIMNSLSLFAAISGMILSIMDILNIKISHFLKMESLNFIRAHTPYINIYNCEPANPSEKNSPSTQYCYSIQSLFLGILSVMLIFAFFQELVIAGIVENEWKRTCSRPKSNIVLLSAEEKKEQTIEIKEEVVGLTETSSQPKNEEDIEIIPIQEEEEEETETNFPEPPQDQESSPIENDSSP
Kind of test: cell-based or functional assay.

Test [2] has as its target CD3 (TCR complex subunit) on T cells (Jurkat reporter cells; human PBMC T cells) (human) (UniProt P07766). Nature of the test: cell-based or functional assay.
UniProt P07766, sequence (P07766 23-207, one chain of several): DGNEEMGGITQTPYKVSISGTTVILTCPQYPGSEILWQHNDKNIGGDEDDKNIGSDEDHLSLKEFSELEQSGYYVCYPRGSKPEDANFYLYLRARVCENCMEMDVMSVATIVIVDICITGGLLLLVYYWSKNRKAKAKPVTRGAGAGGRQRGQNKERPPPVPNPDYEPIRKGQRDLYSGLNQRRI

B1: αCD20/αCD3 TDB (bispecific antibody, from a related filing, V domains shown)
VH 1: EVQLVESGGGLVQPGGSLRLSCAASGYTFTSYNMHWVRQAPGKGLEWVGAIYPGNGDTSYNQKFKGRFTISVDKSKNTLYLQMNSLRAEDTAVYYCARVVYYSNSYWYFDVWGQGTLVTVSS
VL 1: DIQMTQSPSSLSASVGDRVTITCRASSSVSYMHWYQQKPGKAPKPLIYAPSNLASGVPSRFSGSGSGTDFTLTISSLQPEDFATYYCQQWSFNPPTFGQGTKVEIKR
VH 2: EVQLVQSGAEVKKPGASVKVSCKASGYTFTNYYIHWVRQAPGQGLEWIGWIYPGDGNTKYNEKFKGRATLTADTSTSTAYLELSSLRSEDTAVYYCARDSYSNYYFDYWGQGTLVTVSS
VL 2: DIVMTQSPDSLAVSLGERATINCKSSQSLLNSRTRKNYLAWYQQKPGQPPKLLIYWASTRESGVPDRFSGSGSGTDFTLTISSLQAEDVAVYYCTQSFILRTFGQGTKVEIK
As to B1, in test [1], the EC50 of T cell activation (CD69+/CD25+), Human PBMC Donor 1, in presence of target cells was 5.5 ng/mL; the EC50 of T cell activation (CD69+/CD25+), Human PBMC Donor 2, in presence of target cells turned out to be 4.4 ng/mL; the EC50 of luciferase reporter activity, Jurkat/NFκBLuc, in presence of target cells amounted to 1.3 ng/mL. Moreover, in test [2], the EC50 of T cell activation (CD69+/CD25+), Human PBMC Donor 1, in presence of target cells worked out at 5.5 ng/mL; the EC50 of T cell activation (CD69+/CD25+), Human PBMC Donor 2, in presence of target cells is 4.4 ng/mL; the EC50 of luciferase reporter activity, Jurkat/NFκBLuc, in presence of target cells stood at 1.3 ng/mL; the luciferase activity of Jurkat/NFκBLuciferase clone 2 in the presence of a CD20 expressing target cell line, against anti-CD3 homodimer was found to be 1000 fold.
